The results in this text go back to patent US20210332112A1.

The target in this assay is pertussis toxin (Bordetella pertussis) (UniProt P04977). Briefly: ELISA, plate coated with pertussis toxin, antibody titrated, detection with goat anti-human kappa constant domain-HRP [panel C]. (In an ELISA, binding on a coated surface is turned into a signal by an enzyme label.)

In the case of hu1B7-YTE extended half-life antibody, the EC50 (read off the curve) (usually the concentration at which the effect is half-maximal) is 0.04 µg/mL.
